Patent US20240252614A1 (Pfizer, published 2024)

Assays:
[1] = biological target: T1, hMPV101 (hMPV B, UniProt Q6WB98 19-102); assay: BLI, 56C stress
T1 construct: A140C-S149C
Protocol: (§1) All measurements were conducted at 30° C. temperature in 96-well black plates (Corning, Corning, NY) with a final volume of 240 μL per well at a constant agitation rate of 1000 RPM.
(§2) Conformation integrity of hMPV B F protein mutants were evaluated by a thermal stress experiment. Crude cell culture supernatants were normalized based on the results of the titer quantitation and then incubated for 1 hour at room temperature and two higher temperatures. For the testing of hMPV B single mutants, the two temperatures were 53° C. and 56° C. After the incubation, the protein mutants were probed with prefusion specific monoclonal antibody hMPV-2 by OCTET HTX. Anti-Human IgG Fc Capture (AHC) biosensors were first equilibrated in PB before being dipped into more PB for to establish the initial baseline. Biosensors were incubated with hMPV-2 before being equilibrated in PB to establish the experimental baseline. The mAb-bound biosensors were then dipped into the thermal stresses cell culture supernatants for 5 minutes.

[2] = biological target: hMPV B F WT Control (hMPV B, UniProt Q6WB98 19-102); assay: BLI, 56C stress
Protocol: as §1, §2

[3] = biological target: T2, hMPV108 (hMPV B, UniProt Q6WB98 19-102); assay: BLI, 56C stress
T2 construct: T365I
Protocol: as §1, §2

[4] = biological target: T3, hMPV104 (hMPV B, UniProt Q6WB98 19-102); assay: BLI, 56C stress
T3 construct: A459P
Protocol: as §1, §2

[5] = biological target: T4, hMPV102 (hMPV B, UniProt Q6WB98 19-102); assay: BLI, 56C stress
T4 construct: L141C-A161C
Protocol: as §1, §2

[6] = biological target: T5, hMPV100 (hMPV B, UniProt Q6WB98 19-102); assay: BLI, 56C stress
T5 construct: T411C-Q434C
Protocol: as §1, §2

[7] = biological target: T6, hMPV105 (hMPV B, UniProt Q6WB98 19-102); assay: BLI, 56C stress
T6 construct: G239A
Protocol: as §1, §2

[8] = biological target: T7, hMPV107 (hMPV B, UniProt Q6WB98 19-102); assay: BLI, 56C stress
T7 construct: S149T
Protocol: as §1, §2

[9] = biological target: T8, hMPV106 (hMPV B, UniProt Q6WB98 19-102); assay: BLI, 56C stress
T8 construct: T49I
Protocol: as §1, §2

[10] = biological target: T9, hMPV103 (hMPV B, UniProt Q6WB98 19-102); assay: BLI, 56C stress
T9 construct: E146C-T160C
Protocol: as §1, §2

[11] = biological target: T10, stabilized hMPV F protein trimer in pre-fusion conformation (human metapneumovirus); assay: ELISA, F protein coated
T10 construct: also called preF-hMPV; hMPV pre-fusion F protein
Protocol: (§3) Briefly, 96-well microtiter plates were coated with 100 μL/well of individual F protein at 2 μg/mL, and then incubated at 4° C. overnight. After washing with 0.01M TBS/0.1% Brij-35, the plates were blocked with 5% non-fat milk for 1 hr at RT. […] After 3 washes with 0.01M TBS/0.1% Brij-35, 100 μL/well of secondary antibody (HRP-anti-human Fc) in a 1:3000 dilution was added to the plates and incubated for 1 hr RT. After 3 washes with 0.01M TBS/0.1% Brij-35, 100 μL/well of TMB-ELISA Substrate Solution was added to the plates. The reaction was stopped with addition of 100 μL/well of 2N H2SO4 after 2 minutes. The plates were then read on a SpectraMax microplate reader with SoftMax Pro software at OD 450 nm (Molecular Devices). The data was analyzed with Graphpad Prism software.

[12] = biological target: T11, hMPV046 (hMPV A, UniProt Q6WB98 19-102); assay: BLI, no stress
T11 construct: A140C-S149C
Protocol: (§4) The OCTET HTX (Sartorius, Gottingen, Germany) instrument was used to evaluate the expression and conformational integrity for each mutant. All measurements were conducted at 30° C. temperature in 96-well black plates (Corning, Corning, NY) with a final volume of 240 μL per well at a constant agitation rate of 1000 RPM.
(§5) Conformation integrity of hMPV A F protein mutants were evaluated by thermal stress experiments. Crude cell culture supernatants were normalized based on the results of the titer quantitation and then incubated for 1 hour at room temperature and two higher temperatures. […] Anti-Human IgG Fc Capture (AHC) biosensors were first equilibrated in PB before being dipped into more PB to establish the initial baseline. […] The mAb-bound biosensors were then dipped into the thermal stressed cell culture supernatants for 5 minutes. The kinetics analysis was done by OCTET data analysis software (version 12.0, Sartorius) based on curve fitting of the entire associate step.

[13] = biological target: T12, hMPV050 (hMPV A, UniProt Q6WB98 19-102); assay: BLI, no stress
T12 construct: V148C-L158C
Protocol: as §4, §5

[14] = biological target: T13, hMPV048 (hMPV A, UniProt Q6WB98 19-102); assay: BLI, no stress
T13 construct: L141C-A161C
Protocol: as §4, §5

[15] = biological target: T14, hMPV078 (hMPV A, UniProt Q6WB98 19-102); assay: BLI, no stress
T14 construct: T411C-Q434C, A140C-S149C
Protocol: as §4, §5

[16] = biological target: T15, hMPV086 (hMPV A, UniProt Q6WB98 19-102); assay: BLI, no stress
T15 construct: T411C-Q434C, L141C-A161C, T49I; also called hMP0086
Protocol: as §4, §5

[17] = biological target: T16, hMPV090 (hMPV A, UniProt Q6WB98 19-102); assay: BLI, no stress
T16 construct: T411C-Q434C, L141C-A161C, A459P, G239A, T49I, S149T, T365I
Protocol: as §4, §5

[18] = biological target: T17, hMPV082 (hMPV A, UniProt Q6WB98 19-102); assay: BLI, no stress
T17 construct: T411C-Q434C, A140C-S149C, G239A
Protocol: as §4, §5

[19] = biological target: T18, hMPV089 (hMPV A, UniProt Q6WB98 19-102); assay: BLI, no stress
T18 construct: T411C-Q434C, L141C-A161C, S149T
Protocol: as §4, §5

[20] = biological target: T19, hMPV079 (hMPV A, UniProt Q6WB98 19-102); assay: BLI, no stress
T19 construct: T411C-Q434C, A140C-S149C, A459P
Protocol: as §4, §5

[21] = biological target: T20, hMPV097 (hMPV A, UniProt Q6WB98 19-102); assay: BLI, no stress
T20 construct: T411C-Q434C, E146C-T160C, A459P, G239A, T49I, S149T, T365I
Protocol: as §4, §5

[22] = biological target: T21, hMPV081 (hMPV A, UniProt Q6WB98 19-102); assay: BLI, no stress
T21 construct: T411C-Q434C, A140C-S149C, T365I
Protocol: as §4, §5

[23] = biological target: T22, hMPV084 (hMPV A, UniProt Q6WB98 19-102); assay: BLI, no stress
T22 construct: T411C-Q434C, L141C-A161C
Protocol: as §4, §5

[24] = biological target: T23, hMPV083 (hMPV A, UniProt Q6WB98 19-102); assay: BLI, no stress
T23 construct: T411C-Q434C, A140C-S149C, A459P, G239A, T49I, T365I
Protocol: as §4, §5

[25] = biological target: hMPV A F WT Control (hMPV A, UniProt Q6WB98 19-102); assay: BLI, no stress
Protocol: as §4, §5

[26] = biological target: T24, hMPV087 (hMPV A, UniProt Q6WB98 19-102); assay: BLI, no stress
T24 construct: T411C-Q434C, L141C-A161C, T365I
Protocol: as §4, §5

[27] = biological target: T25, hMPV088 (hMPV A, UniProt Q6WB98 19-102); assay: BLI, no stress
T25 construct: T411C-Q434C, L141C-A161C, G239A
Protocol: as §4, §5

[28] = biological target: T26, hMPV085 (hMPV A, UniProt Q6WB98 19-102); assay: BLI, no stress
T26 construct: T411C-Q434C, L141C-A161C, A459P
Protocol: as §4, §5

[29] = biological target: T27, stabilized hPIV1 F protein trimer in pre-fusion conformation (human parainfluenza virus 1); assay: ELISA, F protein coated
T27 construct: also called preF-hPIV1; HPIV1 pre-fusion F protein
Protocol: as §3

[30] = biological target: T28, PIV1048 (PIV1); assay: BLI, 53C stress;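 further: binding of thermally stressed PIV1 F mutant supernatant to mAb on AHC biosensors for 5 min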
T28 construct: Q92C-G134C, A466L, S473L, A480L
Protocol: as §4
(§6) Conformation integrity of PIV1 F protein mutants were evaluated by a thermal stress experiment. Crude cell culture supernatants were normalized based on the results of the titer quantitation and then incubated for 1 hour at room temperature and two higher temperatures. For the initial testing of PIV1 mutants, the two temperatures were 50° C. and 53° C. […] Anti-Human IgG Fc Capture (AHC) biosensors were first equilibrated in PB for before being dipped into more PB to establish the initial baseline. […] The mAb-bound biosensors were then dipped into the thermal stresses cell culture supernatants for 5 minutes.

[31] = biological target: T29, PIV1058 (PIV1); assay: BLI, 53C stress;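 further: binding of thermally stressed PIV1 F mutant supernatant to mAb on AHC biosensors for 5 min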
T29 construct: A466L, S473L, Q92A, G134A
Protocol: as §4, §6

[32] = biological target: T30, PIV1062 (PIV1); assay: BLI, 53C stress;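 further: binding of thermally stressed PIV1 F mutant supernatant to mAb on AHC biosensors for 5 min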
T30 construct: F113G, F114S, A466L, S473L, A480L, Q92A, G134L
Protocol: as §4, §6

B1: hMPV-2 mAb (antibody, V domains shown)
VH: QVQLQQSGAEVKKPGASVKVSCKASGYTFTSYGISWVRQAPGQGLEWMGWISGYNGNTNYAQTFQGTFTMTTDTSTSTAYMELRRLRSGDTAVYYCARDRYYASGSYNGMDVWGQGTTVTVSS
VL: QSALTQPPSASGAPGQRVTVSCSGSSSNVGSSSVYWYQQLPGTAPKLLIYRNNQRPSGVPDRFSGSKSGTSASLAISGLRSEDEADYYCAAWDDSLSGWVFGGGTKLTVLG
notes: human IgG1
[1]
  Response Shift: 0.649 nm
[2]
  Response Shift: 0.005 nm
[3]
  Response Shift: 0.04 nm
[4]
  Response Shift: -0.11 nm
[5]
  Response Shift: 0.007 nm
[6]
  Response Shift: 0.779 nm
[7]
  Response Shift: 0.064 nm
[8]
  Response Shift: 0.519 nm
[9]
  Response Shift: 0.397 nm
[10]
  Response Shift: 0.041 nm
[11]
  EC50: 0.097 nM
[12]
  Response Shift: 0.573 nm
[13]
  Response Shift: 0.669 nm
[14]
  Response Shift: 0.585 nm
[15]
  Response Shift: 0.86 nm
[16]
  Response Shift: 0.851 nm
[17]
  Response Shift: 0.895 nm
[18]
  Response Shift: 0.854 nm
[19]
  Response Shift: 0.891 nm
[20]
  Response Shift: 0.791 nm
[21]
  Response Shift: 0.923 nm
[22]
  Response Shift: 0.837 nm
[23]
  Response Shift: 0.862 nm
[24]
  Response Shift: 0.847 nm
[25]
  Response Shift: 0.898 nm
[26]
  Response Shift: 0.867 nm
[27]
  Response Shift: 0.878 nm
[28]
  Response Shift: 0.766 nm

B2: PIV1-8 mAb (antibody, V domains shown)
VH: QVQLVQSGAEVKKPGSSVKVSCEASGGTFSNYVISWVRQAPGQGLEWMGGIIPVFATAKYAQKFQGRVTIIADQSTNTAYLELSSLRSDDTAVYFCASVDSGGTWWDAFAIWGQGTMVTVSS
VL: QAVVTQPRSVSGSPGQAVTISCTGTSSDVGGYNYVSWYQHHPGKAPKLIIYDVTKRPSGVPDRFSGSKSGNTASLTISGLQTEYEADYYCCSYAGSYTLVFGGGTKLTVLG
notes: human IgG1; also called hPIV1-8 mAb; hPIV1-8
[29]
  EC50: 0.103 nM
[30]
  Response Shift: 0.783 nm
[31]
  Response Shift: 0.704 nm
[32]
  Response Shift: 0.714 nm
